Measured values from the nanobody polyreactivity screen of Harvey et al. (2022).

Test: yeast display, Sf9 membrane polyspecificity reagent, FACS + sequencing; frameworks hold sequencing errors
How it was run: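 Galactose-induced (36–48 hours) yeast carrying a synthetic nanobody display library were exposed to 10% biotinylated, detergent-solubilized Sf9 membrane reagent at 4 °C for 1 hour. FACS followed streptavidin microbead enrichment, using low and high (top ~1%) gates for expression (anti-HA) and reagent binding (streptavidin). Colony PCR, MiSeq 2 × 250 sequencing and CDR-length filtering followed. Labels for polyreactivity reflect the gate of origin.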

Sequence	polyreactivity (PSR sort gate)
QVQLVESGGGLVQAGGSLRLSCAASGFIFTYYGMGWYRQAPGKERELVAAITWSGASTYYADSVKGRFTISRDNAKNTVYLQMNSLKPEDTAVYYCNAGWDSGIVQSDETVYKYDYWGQGTQVTVSS	low polyreactivity
QVQLVESGGGLVQAGGSLRLSCAASGFIFVAYAMGWYRQAPGKERELVATIDSSGGTTYYADSVKGRFTISRDNAKNTVYLQMNSLKPEDTAVYYCNAPIYPYREFGRDYWGQGTQVTVSS	low polyreactivity
QVQLVESGGGLVQAGGSLRLSCAASGFIFVGNAMGWYRQAPGKERELVAAISSGTSTNYADSVKGRFTISRDNAKNTVYLQMNSLKPEDTAVYYCNAEVPATNEYTKRMDYWGQGTQVTVSS	low polyreactivity
QVQLVESGGGLVQAGGSLRLSCAASGFIFVGYAMGWYRQAPGKERELVAAITDGGRTKYADSVKGRFTISRDNAKNTVYLQMNSLKPEDTAVYYCAADDLHTYYTLDYWGQGTQVTVSS	high polyreactivity
QVQLVESGGGLVQAGGSLRLSCAASGFIFVHNAMGWYRPAPGKERELVAAIRSRGGSTYYADSVKGRFTISRDNAKNTVYLQMNSLKPEDTAVDDCAADGAVVSSSRKFGYWGQGTQVTVSS	low polyreactivity
QVQLVESGGGLVQAGGSLRLSCAASGFIFVHNAMGWYRQAPGKERELVAAITSRGRTYYADSVKGRFTISRDNAKNTVYLQMNSLKPEDTAVYYCNAYWRGEYRYDSWGQGTQVTVSS	high polyreactivity
QVQLVESGGGLVQAGGSLRLSCAASGFIFVKNAMGWYRQAPGKERELVAVISTRGGRTYYADSVKGRFTISRDNAKNTVYLQMNSLKPEDTAVYYCAALYWYSRSSWDYDYWGQGTQVTVSS	high polyreactivity
QVQLVESGGGLVQAGGSLRLSCAASGFIFVKYAMGWYRQAPGKERELVAAITNGGSTYYADSVKGRFTISRDNAKNTVYLQMNSLKPEDTAVYYCAAQYHDWWRRLLYRSFLPFDYWGQGTQVTVSS	low polyreactivity
QVQLVESGGGLVQAGGSLRLSCAASGFIFVLNVMGWYRQAPGKEMELVAAITWSGTSTYYADSVKGRFTISRDNAKNTVYLQMNSLKPEDTAVYYCNADWWSDGYDYWGQGSQVTVSS	low polyreactivity
QVQLVESGGGLVQAGGSLRLSCAASGFIFVLYAKGWYRQAPGQERELVAAISRTGGSTYYADSVKGRFTISRDNAKNTVYLQMNSLKPEDTAVYYCAVSRSKTYDYWGQGTQVTVSS	high polyreactivity
QVQLVESGGGLVQAGGSLRLSCAASGFIFVNYMGWYRQAPGKERELVAAISRGGSTNYADSVKGRFTISRDTAKNTVYLQMNSLKPEDTAVYYCAAETWYSGYTYDSCGQGTQVTVSS	low polyreactivity
QVQLVESGGGLVQAGGSLRLSCAASGFIFVPNAMGWYRQAPGNERELVAAIRSSGGTTYYADSVKGRFTISRDNAKNTVYLQMNSLKPEDTAVYYCAAKYTSRLNSGYSNYYWGQGTQVTVSW	high polyreactivity
QVQLVESGGGLVQAGGSLRLSCAASGFIFVPYAMGWYRQAPGKERELVAAISSSGGSTNYTDSVKGRFTISRDNAKNTVYLQMISLKPEDTAVYYCAAATWYVNPTHFNRYSEFYYWGQGTQVTVSS	low polyreactivity
QVQLVESGGGLVQAGGSLRLSCAASGFIFVPYAMGWYRQAPGQERELVAAISSSGGSTNYTDSVKGRFTISRDNAKNSVYLQMNRLKPEDTAVYYCAAATWYVNPTHFNRYSEFYYWGQGTQVTVSS	low polyreactivity
QVQLVESGGGLVQAGGSLRLSCAASGFIFVQYAMGWYRQAPGKERELVAAITKSGGRTYYADSVKGRFTISRDNAKNTVYLQMNSLKPEDTAVYYCAALGNGNFPTVDYWGQGTQVTVSS	high polyreactivity
QVQLVESGGGLVQAGGSLRLSCAASGFIFVRYAMGWYRQAPGKERELVAAISSGGSTKYADSVKGRFTISRDNAKNTVYLQMNSLKPEDTAVYYCAADATPGRGVDYWGQGTQVTVSS	high polyreactivity
QVQLVESGGGLVQAGGSLRLSCAASGFIFVRYAMGWYRQAPGKERELVAAISTSGSSTYYADSVKGRFTISRDNAKNTVFLQMNSLKPEDTAVYYCAAKDRGQSYGYWGQGTQVTVSS	high polyreactivity
QVQLVESGGGLVQAGGSLRLSCAASGFIFVSNAMGWYRQAPGKERELVATITNGDRTYYADSVKGRFTISRDNAKNTVYLQMNSLKPEDTGVYYCNADDQVGSIWKWYGKYEYRGQGTQVTVSS	low polyreactivity
QVQLVESGGGLVQAGGSLRLSCAASGFIFVVYAMGWYRQAPGKERELVATISSGGGTYYADSVKGRFTISRDNAKNSVYFQMNSLKPEDTAVYYCAARRSRLYHFGGNNYWGQGTQVTVSS	high polyreactivity
QVQLVESGGGLVQAGGSLRLSCAASGFIFVYNAMGWYRQATGKERELVAAIDYGGGSTTYADSVKVRFTISRDNAKNTVYLQMNSLKPEDTAVYYCAAYYRYLDDIYEYEYWGQGTQVTVSS	low polyreactivity
QVQLVESGGGLVQAGGSLRLSCAASGFIFVYYAMVWYRQAPGKERELVAAITLRGGSTNYADSVKGRFTISRDNAKNTVYLQMNSRKPEDTAVYYCAAYSVWGGSYLALDYWGQGTQVTVSS	low polyreactivity
QVQLVESGGGLVQAGGSLRLSCAASGFIFVYYTMGWYRQAPGNERELVAAISVSGGRTYYADSVKGRFTISRDNAKNTVYLQMNSLKPEDTAVYYCNARNGYGIGYWGQGTQVTVSS	high polyreactivity

Sequence	polyreactivity (PSR sort gate)
QVQLVESGGGLVQAGGSLRLSCAASGFIFVYYVMGWYRTAPGKERELVAAITQSGGSTYYADSVKGRFTISRDNAKNTVYLQMNSLKPEDTAVYYCAAYRRTTGGGYDYWGQGTQVTVSS	high polyreactivity
QVQLVESGGGLVQAGGSLRLSCAASGFIFWAYDMGWYRQAPGKERELVAGIDWSGGSTYYADSVKGRFTISRDNAKNTVYLQMNSLKPEDTAVYYCAADRLLYGGGREYWGQGTQVTVSS	high polyreactivity
QVQLVESGGGLVQAGGSLRLSCAASGFIFWDYALGWYRQAPGKEREFVANISRSVGSTYYADSVKGRFTISRDNAKNTVYLQMYTLKPEDTAVYYCAAVTWGEGFDYWGQGTQVTVSS	low polyreactivity
QVQLVESGGGLVQAGGSLRLSCAASGFIFWGNAMGWYRQAPGKERELVAAISSSSGSTYYADSVKGRFTISRDNAKNTVYLQMNSLKPVDSAVYDCAVDTPRSYRAQGAYNYWGQGTQVTVSS	low polyreactivity
QVQLVESGGGLVQAGGSLRLSCAASGFIFWKYAMGWYRPAPGKERELVAAISRSGGRTYYADSVKGRFTISRDNAKNTVYLQMNSLKPEDTAVYYCAKDSATYPYGTVGEYNYWGQGTQVTVSS	high polyreactivity
QVQLVESGGGLVQAGGSLRLSCAASGFIFWLYAMGWSRQAPGKERELVASINWSGGDTYYADSVKGRFTISRDKAKNTVYLQMNSLKPEDTAVYYCAARYWSIYDYWGQGTQVTVSS	low polyreactivity
QVQLVESGGGLVQAGGSLRLSCAASGFIFWLYAMGWYRQAPGKERELVAAISRSGGRTYYADSVKGRFTISRDNAKITVYLQMNSLKPEDTAVYYFAKVDNYKSYPYDYWGQGTQVTVSS	high polyreactivity
QVQLVESGGGLVQAGGSLRLSCAASGFIFWSNAMGWYRQAPGKERELVAAISWSGGSTYYADSVKGRFTISRDNAKKTVYLQMNSLKPEDTAVYYCNTLNVQRDEHDYWGQGTQVTVSS	high polyreactivity
QVQLVESGGGLVQAGGSLRLSCAASGFIFWSNAMGWYRQAPGKERELVAAISWSGGSTYYADSVKGRFTISRDNAKNTVYLQMNSLKPEDTAVYYCNTLNVQRDEHDYWGQGTQVTVSS	high polyreactivity
QVQLVESGGGLVQAGGSLRLSCAASGFIFWSNARGWYRQAPGQDRELVAAINSSGGRTDYADSVKGRFTNSRDNAKNTDYLHMNSLKPEDTAVYYCAARLHSPPYRYDYWGQGTQVTVSS	high polyreactivity
QVQLVESGGGLVQAGGSLRLSCAASGFIFWSYAMGWYRQAPGKERELVAAINTSTGRTYYADSVKGRFTISRDNAKNTVYLQMNSLKPEDTAVYYCAADLPWGPLFDYWGQGTQVTVSS	low polyreactivity
QVQLVESGGGLVQAGGSLRLSCAASGFIFWTYAMGWYRQAPGKERELVAAISSGGTITKYADSVKGRFTISRDNATNTVYLQMNSLKPEDTAVYYCNARENAVSLRDYWGQGTQVTVSS	high polyreactivity
QVQLVESGGGLVQAGGSLRLSCAASGFIFWTYAMGWYRQAPGKERELVARISWSGGSTYYADSVKGRFTISRDNAKNTVYLQMNSLKPEDTAVYYCARLATLYESIEYDYWGHGTQVTVSS	low polyreactivity
QVQLVESGGGLVQAGGSLRLSCAASGFIFWVYAMGWYRQAPGKESELVAAITSGGRTYYADSEKGRFTISRDNAKNTVYLQMNSLKPEDTAVYYCAARWHYGYYSYYYWGQGTQVTVSS	high polyreactivity
QVQLVESGGGLVQAGGSLRLSCAASGFIFWYYAMGWYRQAPGKERELVATITTGGGTNYADSVKGRFTISRDNAKNTVYLQMNSLKPEDTAVYYCNADFRWYAEDDYWGQGTQVTVSS	low polyreactivity
QVQLVESGGGLVQAGGSLRLSCAASGFIFYAYAMGWYRPAPGKERELVAAISQRGGITYYADSVKGRFTISRDNAKNTVYLQMNRLKPEDTAVYYCNAGQRYYTSRYYYWGQGTQVTVSS	high polyreactivity
QVQLVESGGGLVQAGGSLRLSCAASGFIFYDNAMGWYRQAPGKERELVAAITSGGSTYYADSVKGRFTISRDNAKNTVYLQMNSLKPEDTAVYYCATRPWGSWYYYWGQGTQVTVSS	high polyreactivity
QVQLVESGGGLVQAGGSLRLSCAASGFIFYDYAMGWYRQAPGKERELVASISWSTGSTYYADSVKGRFTISRDNAKNTVYLQMNSLKPEDTADYYCAADGYPLQLYNYWGQGTQVTVSS	low polyreactivity
QVQLVESGGGLVQAGGSLRLSCAASGFIFYDYDMGWYRQSPGKERELVAAISSGGSTNYADSVKGRFTISRDNAKNTVYLQMNSLIPEDTAVYYCATDVGVERRQVDRYIYDYWGQGTQVTVSS	low polyreactivity
QVQLVESGGGLVQAGGSLRLSCAASGFIFYGYAMGWYRQAPGKERELVAGISTGGSTNYADSVKGRFTISRDNAKNTVYLQMNSLKPEDTAVYYCAKRAYFYYGRYDYWGQGTQVTVSS	low polyreactivity
QVQLVESGGGLVQAGGSLRLSCAASGFIFYGYTMGWYRQAPGKERELLARISRRGGSTYYADSVKGRFTISRDNAKNTVYLQMNSLKPEDTAVYYCATDDARRGYGYGYWGQGPQVTVSS	low polyreactivity
